8 molecules from US20240287196A1 (published 2024) can be followed below.

Like-named read-outs stand apart in the source and are kept apart here.

In test [1] the target is T1, human ALK7-Fc comprising protein (human, UniProt Q8NER5 22-113).
T1 construct: also called hALK7-Fc; not shown: Fc part and any linker
T1 sequence: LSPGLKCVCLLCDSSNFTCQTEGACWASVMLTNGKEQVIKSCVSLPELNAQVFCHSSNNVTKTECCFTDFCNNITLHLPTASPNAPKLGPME
Kind of test: SPR (Biacore T100/T200); antibody captured on FAB chip, ALK7-Fc comprising protein as analyte; 1:1 model. The protocol: (§1) Experiments were performed using a Biacore T100/T200 biosensor (Biacore/GE Healthcare) at 25 and 37° C. ALK7 antibodies were captured on custom made FAB chip. A concentration series of ALK7-Fc comprising protein was injected over the flow cells at a flow rate of […]. To obtain kinetic rate constants the corrected data were fit to a 1:1 interaction model using BiaEvaluation software (GE Healthcare). The equilibrium binding constant KD was determined by the ratio of binding rate constants kd/ka.
In general terms: In SPR one partner is held on a chip, and binding of the other changes the refractive index at the surface.

Test [2] concerns the target T2, rat Alk7-Fc comprising protein (rat, UniProt P70539 26-113).
T2 construct: not shown: Fc part and any linker
T2 sequence: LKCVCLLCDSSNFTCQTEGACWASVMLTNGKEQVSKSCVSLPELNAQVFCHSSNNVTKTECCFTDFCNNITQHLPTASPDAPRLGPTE
The test is described as above. Here is the method: as §1

In test [3] the target is T3, ALK7-Fc comprising protein (Homo sapiens (Human), UniProt Q8NER5 21-113).
T3 construct: not shown: The Fc part and any linker of the fusion; The construct's exact ALK7 limits are not seen either
T3 sequence: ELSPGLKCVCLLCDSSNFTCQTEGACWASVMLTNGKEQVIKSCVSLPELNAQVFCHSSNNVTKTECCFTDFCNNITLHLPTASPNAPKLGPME
Kind of test: SPR (Biacore T100/T200), 25 °C; antibody captured on FAB chip, ALK7-Fc comprising protein as analyte; 1:1 model. Here is the method:
Experiments were performed using a Biacore T100/T200 biosensor (Biacore/GE Healthcare) at 25 and 37° C. ALK7 antibodies were captured on custom made FAB chip. A concentration series of ALK7-Fc comprisingprotein was injected over the flow cells at a flow rate of […]. To obtain kinetic rate constants the corrected data were fit to a 1:1 interaction model using BiaEvaluation software (GE Healthcare). The equilibrium binding constant KD was determined by the ratio of binding rate constants kd/kₐ.

Test [4] concerns the target T4, ALK7 on differentiated 3T3-L1 adipocytes (UniProt Q8K348 26-493, limits assumed).
T4 sequence (looked up): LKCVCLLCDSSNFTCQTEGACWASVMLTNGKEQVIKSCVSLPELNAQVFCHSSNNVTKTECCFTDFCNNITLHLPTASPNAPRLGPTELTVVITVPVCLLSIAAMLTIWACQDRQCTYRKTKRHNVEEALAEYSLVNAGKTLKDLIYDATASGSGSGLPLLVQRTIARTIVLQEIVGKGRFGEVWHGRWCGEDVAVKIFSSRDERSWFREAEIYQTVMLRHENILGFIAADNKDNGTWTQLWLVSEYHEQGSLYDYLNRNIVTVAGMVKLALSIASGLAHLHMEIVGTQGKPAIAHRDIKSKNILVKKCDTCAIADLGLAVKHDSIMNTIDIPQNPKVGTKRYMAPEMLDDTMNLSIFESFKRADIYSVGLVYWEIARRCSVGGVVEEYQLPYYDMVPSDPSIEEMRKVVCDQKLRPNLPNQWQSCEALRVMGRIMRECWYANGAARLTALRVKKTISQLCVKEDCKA
The test is described as follows: cell-based or functional assay.

Test [5] deals with T1, human ALK7-Fc comprising protein. Kind of test: SPR (Biacore T100/T200); antibody captured on FAB chip, ALK7-Fc comprising protein as analyte; 1:1 model. This is another data set of the same source.

B1: L01 (antibody, V domains shown)
VH: QVQLVQSGAEVKKPGSSVKVSCKASGGTFSSYAISWVRQAPGQGLEWMGSIIPIFGTANYAQKFQGRVTITADESTSTAYMELSSLRSEDTAVYYCARDPVGARYEVFDYWGQGTLVTVSS
VL: EIVMTQSPATLSVSPGERATLSCRASQSVSSNLAWYQQKPGQAPRLLIYSASTRATGIPARFSGSGSGTEFTLTISSLQSEDFAVYYCQQANTFPLTFGGGTKVEIK
notes: also called antibody L01
Usually Kd stands for a measure of binding affinity in units of concentration. A high value points to lower affinity. Broadly, the kon is the second-order rate constant of association. Read a high kon as faster complex formation. Usually koff stands for a measure of how fast the partners let go of each other. The low end stands for a long-lived complex, the high end for a short-lived complex. On to B1, for which, in test [1], the Kd worked out at 15.1 nM and the kon came out at 24300 M⁻¹ s⁻¹. Also, in test [2], the Kd amounted to 22.9 nM, the koff worked out at 0.000271 s⁻¹ and the kon is 11800 M⁻¹ s⁻¹.

B2: L02 (antibody, V domains shown)
VH: QVQLVQSGAEVKKPGASVKVSCKASGYTFAGYNMHWVRQAPGQGLEWVGIINPNSGWTNYAQKFQGRVTMTRDTSVSAAYMELSRLRSDDTAVYYCARDPVGARYEVFDYWGQGTLVTVSS
VL: EIVMTQSPATLSVSPGERATLSCRASQSVSSALAWYQQKPGQAPRLLIYSAFTRASGIPARFSGSGSGTEFTLTISSLQSEDFAVYYCQQAWAFPLTFGGGTKVEIK
notes: also called mAb L02; antibody L02
Regarding B2, in test [3], the Kd was 0.44 nM, the koff amounted to 1.21e-05 s⁻¹ and the kon was determined as 27400 M⁻¹ s⁻¹.

B3: G04 (antibody, V domains shown)
VH: QVQLVQSGAEVKKPGSSVKVSCKASGGTFSSYAISWVRQAPGQGLEWMGGIIPIFGTASYAQKFQGRVTITADESTSTAYMELSSLRSEDTAVYYCARTPYYDSSGYLDVWGQGTMVTVSS
VL: DIQMTQSPSSLSASVGDRVTITCQASQDISNYLNWYQQKPGKAPKLLIYDASNLATGVPSRFSGSGSGTDFTFTISSLQPEDIATYYCQQSLDLPPTFGGGTKVEIK
notes: also called antibody G04
Take B3: the “Increase in lipolysis activity (%)” value in test [4] came to 45.8%. Besides, in test [5], the affinity, expressed as Kd, was 247 nM; the off-rate (koff) stood at 0.0222 s⁻¹; the kon came out at 89600 M⁻¹ s⁻¹.

B4: G05 (antibody, human IgG1, kappa, V domains shown)
VH: QVQLVQSGAEVKKPGSSVKVSCKASGGTFSGQAISWVRQAPGQGLEWMGGIIPSFGTARYAQKFQGRVTITADESTSTAYMELSSLRSEDTAVYYCARTPYYDSSGYLDVWGQGTMVTVSS
VL: DIQMTQSPSSLSASVGDRVTITCQASHDIDNYLNWYQQKPGKAPKLLIYYASNLKTGVPSRFSGSGSGTDFTFTISSLQPEDIATYYCQQSRASPPTFGGGTKVEIKR
notes: also called mAb G05; antibody G05
In test [3], B4 showed a Kd of 0.87 nM, a koff of 2.59e-05 s⁻¹ and a kon of 29900 M⁻¹ s⁻¹.

B5: C03 (antibody, human IgG1, kappa, V domains shown)
VH: QLQLQESGPGLVKPSETLSLTCTVSGGSISSSAYYWAWIRQPPGKGLEWIGSIYLSGSTTYNPSLKSRVTISVDTSKNQFSLKLSSVTAADTAVYYCARDGRYQSRSPDYYYGMDVWGQGTTVTVSS
VL: EIVLTQSPGTLSLSPGERATLSCKASQSVSSSYLAWYQQKPGQAPRLLIYGAFSRANGIPDRFSGSGSGTDFTLTISRLEPEDFAVYYCQQLVSYPFTFGGGTKVEIKR
notes: also called mAb C03; antibody C03
In test [3], B5 gave a Kd of 0.33 nM, a koff of 1.27e-05 s⁻¹ and a kon of 38300 M⁻¹ s⁻¹.

B6: K01 (antibody, V domains shown)
VH: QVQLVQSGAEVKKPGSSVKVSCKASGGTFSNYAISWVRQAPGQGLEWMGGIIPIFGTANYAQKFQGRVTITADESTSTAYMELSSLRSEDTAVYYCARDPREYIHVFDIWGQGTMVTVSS
VL: DIQMTQSPSSLSASVGDRVTITCRASQSISSYLNWYQQKPGKAPKLLIYGASSLQSGVPSRFSGSGSGTDFTLTISSLQPEDFATYYCQQAYSFPWTFGGGIKVEIK
notes: also called antibody K01
Take B6: in test [1], the Kd is 201 nM, the koff is 0.00916 s⁻¹ and the association rate constant (kon) is 45600 M⁻¹ s⁻¹. In test [2], this molecule displayed a Kd of 8.14 nM, a koff of 0.000139 s⁻¹ and a kon of 17100 M⁻¹ s⁻¹.

B7: J02 (antibody, V domains shown)
VH: EVQLLESGGGLVQPGGSLRLSCAASGFTFSVYAMSWVRQAPGKGLEWVSAISGSGDSTVYADSVKGRFTISRDNSKNTLYLQMNSLRAEDTAVYYCAKPSYQPIYWGQGTLVTVSS
VL: DIQMTQSPSSVSASVGDRVTITCRASQGISSWLAWYQQKPGKAPKLLIYAASSLQSGVPSRFSGSGSGTDFTLTISSLQPEDFATYYCQQAASYPLTFGGGTKVEIK
notes: also called mAb J02; antibody J02
In test [3], B7 gave a Kd of 5.33 nM, a koff of 0.000126 s⁻¹ and a kon of 23600 M⁻¹ s⁻¹.

B8: K02 (antibody, V domains shown)
VH: QVQLVQSGAEVKKPGSSVKVSCKASGGTFSSSAIGWVRQAPGQGLEWMGGIWPIFGTALYAQKFQGRVTITADESTSTAYMELSSLRSEDTAVYYCARDPREYIHVFDIWGQGTMVTVSS
VL: DIQMTQSPSSLSASVGDRVTITCRASQSISSYLNWYQQKPGKAPKLLIYGASSLQSGVPSRFSGSGSGTDFTLTISSLQPEDFATYYCQQAYSFPWTFGGGIKVEIK
notes: also called mAb K02; antibody K02
In test [3], B8 yielded a Kd of 12.4 nM, a koff of 0.000291 s⁻¹ and a kon of 23500 M⁻¹ s⁻¹.
